A word on the Kd: it is the free concentration of one partner at which half of the binding sites on the other are occupied at equilibrium, for simple one-to-one binding. By koff is commonly meant the rate constant with which the complex falls apart. For orientation: kon means a measure of how fast the partners come together.

Assay [1] concerns the target T1, recombinant human CTGF-Fc protein (Creative Biomart) (human).
T1 construct: Bought; also called human CTGF with a human IgG1 Fc Tag
Kind of assay: SPR (Biacore). On the procedure: (§1) The binding of exemplary lipocalin muteins to human (Creative Biomart), cynomolgus, rat (R&D Systems) and mouse CTGF (Abbexa) was determined by SPR using a Biacore instrument (Cytiva, formerly GE Healthcare). Some targets were fused to a human IgG1 Fc tag, and captured via the anti-human IgG antibody kit, others were directly immobilized.
(§2) For some measurements, human CTGF with a human IgG1 Fc Tag or rat or murine CTGF without a tag were directly immobilized to a CM5 Chip. The carboxyl groups on the chip were activated using 1-ethyl-3-(3-dimethylaminopropyl)-carbodiimide (EDC) and N-hydroxysuccinimide (NHS). […] Residual non-reacted NHS-esters were blocked by passing a solution of 1 M ethanolamine across the surface. The reference channel was activated/deactivated. For the capture setting, targets with an IgG Fc Tag at 0.25-2.5 μg/mL in HBS-EP+ buffer were captured by the anti-human IgG-Fc antibody at the chip surface for 180 s at a flow rate of 10 μL/min.
(§3) The binding assay was carried out with a contact time of 180 s, a dissociation time of 900-3600 s and a flow rate of 30 μL/min. All measurements were performed at 25° C. […] For the directly immobilized targets, the same regeneration conditions were used. Prior to the protein measurements, three startup cycles were performed for conditioning purposes.
A general note: SPR reads the build-up and loss of mass on a sensor chip optically.

A further assay concerns the target T2, huCYR61 (human, UniProt O00622 25-381, limits assumed).
T2 construct: also called human CYR61 (CCN1)
T2 sequence (looked up): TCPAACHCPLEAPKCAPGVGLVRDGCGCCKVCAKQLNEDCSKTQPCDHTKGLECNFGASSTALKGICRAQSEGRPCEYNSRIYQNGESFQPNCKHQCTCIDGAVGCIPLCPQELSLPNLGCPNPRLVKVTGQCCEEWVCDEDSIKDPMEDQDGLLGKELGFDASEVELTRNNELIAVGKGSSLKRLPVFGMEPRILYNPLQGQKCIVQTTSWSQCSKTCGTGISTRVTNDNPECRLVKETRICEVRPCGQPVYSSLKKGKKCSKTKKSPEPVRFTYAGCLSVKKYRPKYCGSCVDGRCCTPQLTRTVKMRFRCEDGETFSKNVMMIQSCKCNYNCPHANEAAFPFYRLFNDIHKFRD
Kind of assay: ELISA, coated CCN protein. The procedure: (§4) Binding of muteins to closely related proteins of CTGF was tested by an ELISA assay. In detail, a 384-well plate suitable for fluorescence measurements (Greiner FLUOTRAC™ 600, black flat bottom, high-binding) was coated with 20 μl of human CTGF or the other members of the CCN protein family at a concentration of 1 μg/ml in PBS over night at 4° C. After washing with PBS with 0.05% Tween 20, wells were blocked with 100 μl blocking buffer containing 0.1% Tween 20 and 2% BSA (PBS-T/BSA) for 1 h at room temperature. 20 μl of serially diluted muteins starting at 1000 nM were incubated in PBS-T/BSA for 1 h at room temperature (RT).
(§5) The residual supernatants were discarded and 20 μl HRP-labeled anti-NGAL or anti-Strep-Tag antibody was added at a predetermined optimal concentration in PBS-T/BSA and incubated for 1 h at RT. After washing, 20 μl fluorogenic HRP substrate (QuantaBlu, Thermo) was added to each well, and the reaction was allowed to proceed for 2 to 60 minutes. The fluorescence intensity of every well on the plate was read using a fluorescence microplate reader (Tecan). When the signal for human CTGF approached saturation, the cross reactivity to the other proteins was assessed.
A general note: An ELISA detects its analyte on a solid surface through an enzyme-linked reagent.

A further assay addresses T3, huWISP-3 (human, UniProt O95389 24-354, limits assumed).
T3 construct: also called human WISP-3 (CCN6)
T3 sequence (looked up): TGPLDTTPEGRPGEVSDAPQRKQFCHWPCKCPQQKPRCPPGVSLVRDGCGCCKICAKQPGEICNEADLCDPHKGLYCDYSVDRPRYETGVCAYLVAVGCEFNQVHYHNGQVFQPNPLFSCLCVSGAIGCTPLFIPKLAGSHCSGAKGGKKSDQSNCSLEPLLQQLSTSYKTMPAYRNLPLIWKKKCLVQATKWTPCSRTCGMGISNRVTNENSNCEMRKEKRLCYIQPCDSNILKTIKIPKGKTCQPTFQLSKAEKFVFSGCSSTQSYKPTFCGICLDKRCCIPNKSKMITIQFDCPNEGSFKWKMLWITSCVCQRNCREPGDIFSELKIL
Kind of assay: ELISA, coated CCN protein. On the procedure:
as §4, §5

For a further assay, the target named is T4, huNOV (human, UniProt P48745 32-357, limits assumed).
T4 construct: also called human NOV (CCN3)
T4 sequence (looked up): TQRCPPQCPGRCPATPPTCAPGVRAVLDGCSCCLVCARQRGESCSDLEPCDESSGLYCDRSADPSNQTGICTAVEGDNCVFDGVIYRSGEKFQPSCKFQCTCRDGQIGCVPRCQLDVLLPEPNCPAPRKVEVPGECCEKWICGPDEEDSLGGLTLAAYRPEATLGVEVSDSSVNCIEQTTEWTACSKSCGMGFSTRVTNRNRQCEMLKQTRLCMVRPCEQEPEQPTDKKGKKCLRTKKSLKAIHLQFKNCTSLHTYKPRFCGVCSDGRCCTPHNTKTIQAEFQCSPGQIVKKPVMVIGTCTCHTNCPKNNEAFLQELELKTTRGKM
Kind of assay: ELISA, coated CCN protein. The procedure: as §4, §5

The next assay has as its target T5, huWISP-2 (human, UniProt O76076 24-250, limits assumed).
T5 construct: also called human WISP-2 (CCN5)
T5 sequence (looked up): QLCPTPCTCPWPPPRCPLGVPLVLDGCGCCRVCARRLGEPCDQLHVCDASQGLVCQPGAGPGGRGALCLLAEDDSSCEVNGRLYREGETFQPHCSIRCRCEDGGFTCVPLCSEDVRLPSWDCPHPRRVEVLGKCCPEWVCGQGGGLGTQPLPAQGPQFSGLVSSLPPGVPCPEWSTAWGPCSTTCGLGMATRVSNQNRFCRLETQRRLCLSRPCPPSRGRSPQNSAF
Kind of assay: ELISA, coated CCN protein. The procedure: as §4, §5

Another assay has as its target T6, huWISP-1 (human, UniProt O95388 23-367, limits assumed).
T6 construct: also called human WISP-1 (CCN4)
T6 sequence (looked up): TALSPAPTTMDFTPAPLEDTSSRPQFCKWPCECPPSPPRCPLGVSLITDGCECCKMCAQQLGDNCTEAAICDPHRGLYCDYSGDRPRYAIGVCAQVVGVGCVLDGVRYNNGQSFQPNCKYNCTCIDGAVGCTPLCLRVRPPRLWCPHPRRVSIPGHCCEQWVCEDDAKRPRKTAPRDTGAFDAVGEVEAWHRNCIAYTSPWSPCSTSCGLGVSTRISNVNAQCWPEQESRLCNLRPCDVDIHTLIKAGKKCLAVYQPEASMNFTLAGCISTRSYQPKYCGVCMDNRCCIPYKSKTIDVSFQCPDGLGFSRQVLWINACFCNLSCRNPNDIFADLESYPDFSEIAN
Kind of assay: ELISA, coated CCN protein. On the procedure:
as §4, §5

Assay [2] deals with T7, CTGF expressed by TGF-β1-stimulated normal human lung fibroblasts (NHLFs) (human, UniProt P29279 27-349).
T7 construct: whole, on cells; Cells grown under conditions that facilitate pseudo-3D extracellular matrix deposition; also called CTGF-expressing NHLFs
T7 sequence (looked up): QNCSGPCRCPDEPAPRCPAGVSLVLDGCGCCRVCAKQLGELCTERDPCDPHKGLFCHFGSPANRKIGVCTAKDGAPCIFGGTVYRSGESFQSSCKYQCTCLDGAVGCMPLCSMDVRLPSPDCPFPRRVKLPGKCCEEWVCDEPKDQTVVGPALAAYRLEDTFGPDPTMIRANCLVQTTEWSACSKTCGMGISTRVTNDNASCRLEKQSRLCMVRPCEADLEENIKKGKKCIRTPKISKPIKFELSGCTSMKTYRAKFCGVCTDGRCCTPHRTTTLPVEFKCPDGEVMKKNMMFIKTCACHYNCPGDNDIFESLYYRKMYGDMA
Kind of assay: immunofluorescence staining of the lipocalin scaffold (AlexaFluor647 secondary antibody) on NHLFs incubated 24 h with the construct and 10 ng/ml TGF-β1; signal normalised to the NGAL control.

The target in assay [3] is T8, recombinant rat CTGF protein (R&D Systems) (rat, UniProt Q9R1E9 25-347).
T8 construct: Bought; also called rCTGF
T8 sequence: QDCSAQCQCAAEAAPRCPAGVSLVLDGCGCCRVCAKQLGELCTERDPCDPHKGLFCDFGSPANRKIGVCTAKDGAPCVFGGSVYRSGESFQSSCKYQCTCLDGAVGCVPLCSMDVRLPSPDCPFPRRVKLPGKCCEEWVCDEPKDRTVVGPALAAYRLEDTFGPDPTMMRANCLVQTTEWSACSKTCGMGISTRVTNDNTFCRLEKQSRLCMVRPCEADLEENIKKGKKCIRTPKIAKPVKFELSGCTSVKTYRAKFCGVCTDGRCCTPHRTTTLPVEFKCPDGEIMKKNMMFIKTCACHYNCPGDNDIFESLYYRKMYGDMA
Kind of assay: SPR (Biacore); B = binding without determination of kinetics constants. The procedure:
as §1, §2, §3

T1 sequence (chain, as listed by the source limits assumed): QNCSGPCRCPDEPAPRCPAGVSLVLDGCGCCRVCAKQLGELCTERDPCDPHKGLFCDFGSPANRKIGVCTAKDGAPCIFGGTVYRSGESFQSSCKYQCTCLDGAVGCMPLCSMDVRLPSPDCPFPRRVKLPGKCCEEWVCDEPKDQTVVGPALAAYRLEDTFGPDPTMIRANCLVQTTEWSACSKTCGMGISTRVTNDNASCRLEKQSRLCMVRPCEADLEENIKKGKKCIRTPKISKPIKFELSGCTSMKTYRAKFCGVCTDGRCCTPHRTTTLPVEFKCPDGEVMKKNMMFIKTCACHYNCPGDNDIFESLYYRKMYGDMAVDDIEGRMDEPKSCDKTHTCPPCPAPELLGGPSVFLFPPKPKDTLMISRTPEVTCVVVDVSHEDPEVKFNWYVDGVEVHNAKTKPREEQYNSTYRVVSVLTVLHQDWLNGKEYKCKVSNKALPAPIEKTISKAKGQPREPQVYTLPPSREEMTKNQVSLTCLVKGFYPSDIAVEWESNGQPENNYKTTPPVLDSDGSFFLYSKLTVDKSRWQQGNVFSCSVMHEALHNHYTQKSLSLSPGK

B1: lipocalin mutein of SEQ ID NO: 23 (designed binder)
chain: QDSTSDLIPAPPLSKVPLQQNFQDNQFQGKWYVVGVAGNAILRPDKQPAKMFATIYELKEDKSYDVTSVRFEAKSCKYTIKTFVPGSQPGEFTSGQIKSAPGQTSTLVRVVSTNYNQHAMVFFKHVSQNREIFVITLYGRTKELTSELKENFIRFSKSLGLPENHIVFPVPIDQCIDG
notes: also called hNGAL mutein
For B1, the Kd in assay [1] amounted to 0.077 nM. In addition, the off-rate constant (koff) in assay [1] stood at 9.42e-06 s⁻¹. Also, the kon in assay [1] came out at 122000 M⁻¹ s⁻¹. Also, the binding result in the assay with huCYR61 is recorded as “no binding (tested: dilutions starting at 1000 nM)”; with huWISP-3, “no binding (tested: dilutions starting at 1000 nM)”; in the assay with huNOV, “no binding (tested: dilutions starting at 1000 nM)”; with huWISP-2, “no binding (tested: dilutions starting at 1000 nM)”; with huWISP-1 it was “no binding (tested: dilutions starting at 1000 nM)”; in assay [2], “binds”.

B2: lipocalin mutein of SEQ ID NO: 6 (designed binder)
chain: QDSTSDLIPAPPLSKVPLQQNFQDNQFQGKWYVVGRAGNNQLREDKSPPKMWATIYELKEDKSYDVTHVHFSTKKCRYIIDTFVPGSQPGEFTAGAIKSGPGLTSPLVRVVSTNYNQHAMVFFKWVTQNREWFTITLYGRTKELTSELKENFIRFSKSLGLPENHIVFPVPIDQCIDG
notes: also called hNGAL mutein; not shown: C-terminal His-tag
Turning to B2, in assay [1], the equilibrium dissociation constant (Kd) worked out at 0.514 nM, the koff turned out to be 0.000149 s⁻¹ and the kon came to 290000 M⁻¹ s⁻¹. Also, the binding result in assay [3] is recorded as “binds”.

For the origin of these results see patent publication US20240228562A1 (Pieris, published 2024).
